Blank lines part the entries; values can stand above or below the binder they belong to.
Molecular target: human LAG3 expressed on cells (human) (UniProt P18627)
Test: cell-based or functional assay

Chain of human LAG3 expressed on cells (human) (P18627 23-525): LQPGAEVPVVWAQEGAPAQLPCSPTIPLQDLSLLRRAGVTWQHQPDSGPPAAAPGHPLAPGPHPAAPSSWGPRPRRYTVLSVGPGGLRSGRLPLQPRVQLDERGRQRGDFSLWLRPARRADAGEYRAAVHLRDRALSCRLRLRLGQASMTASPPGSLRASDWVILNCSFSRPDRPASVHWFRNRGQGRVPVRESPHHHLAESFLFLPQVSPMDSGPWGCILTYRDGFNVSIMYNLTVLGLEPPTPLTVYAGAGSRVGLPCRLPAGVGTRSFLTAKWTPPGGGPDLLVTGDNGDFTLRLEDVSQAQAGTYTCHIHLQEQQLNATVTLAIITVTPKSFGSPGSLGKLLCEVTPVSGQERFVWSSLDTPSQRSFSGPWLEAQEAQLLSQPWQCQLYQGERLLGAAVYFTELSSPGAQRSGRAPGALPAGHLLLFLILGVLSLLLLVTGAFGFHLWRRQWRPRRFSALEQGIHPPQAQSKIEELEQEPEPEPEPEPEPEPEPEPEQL

- Efficacy (Normalized to BMS): 113%
- IL-2, % of BMS, at 0.001016105 ug/mL: 0%
- IL-2, % of BMS, at 0.003048316 ug/mL: 10.7%
- IL-2, % of BMS, at 0.009144947 ug/mL: 7.28%
- IL-2, % of BMS, at 0.027434842 ug/mL: 30.2%
- IL-2, % of BMS, at 0.082304527 ug/mL: 10.3%
- IL-2, % of BMS, at 0.24691358 ug/mL: 35.4%
- IL-2, % of BMS, at 0.740740741 ug/mL: 59.3%
- IL-2, % of BMS, at 2.222222222 ug/mL: 96.8%
- IL-2, % of BMS, at 6.666666667 ug/mL: 112%
- IL-2, % of BMS, at 20 ug/mL: 116%
- Jurkat T-hLAG3 Assay EC50: 8.01 nM
B1: sdAb fusion 25-2015-3 (Fc fusion, not shown: a dimerising Fc or GST)
chain: QLQLVESGGGLVQAGGSLRLSCAASGSIESFSFMGWYRQAPGKQRELVAGFTGAASLSFSTYTDAVKGRFTISRDNAKNTVYLQMNSLKPEDTAVYFCNVDPWSQSWPGRYWGQGTQVTVSSGGGGSGGGGSGGGGSQLQLVESGGGLAQTGGSLRLSCAAAGFTFDDTATGWFRQAPGKNREGVACISSSDGRIHYIDSAKGRFTISKDNAKKTVYLQMDSLKPEDTAVYYCAAARKGSTDCQGAIWGSWGQGTQVIVSSEPKSCDKTHTCPPCPAPELLG

- Efficacy (Normalized to BMS): 114%
- IL-2, % of BMS, at 0.001016105 ug/mL: 0.000292%
- IL-2, % of BMS, at 0.003048316 ug/mL: 10.8%
- IL-2, % of BMS, at 0.009144947 ug/mL: 7.32%
- IL-2, % of BMS, at 0.027434842 ug/mL: 30.4%
- IL-2, % of BMS, at 0.082304527 ug/mL: 10.4%
- IL-2, % of BMS, at 0.24691358 ug/mL: 35.6%
- IL-2, % of BMS, at 0.740740741 ug/mL: 59.7%
- IL-2, % of BMS, at 2.222222222 ug/mL: 97.5%
- IL-2, % of BMS, at 6.666666667 ug/mL: 112%
- IL-2, % of BMS, at 20 ug/mL: 117%
- Jurkat T-hLAG3 Assay EC50: 8.01 nM
B6: sdAb fusion 25-2015-1 (Fc fusion, not shown: a dimerising Fc or GST)
chain: QLQLVESGGGLVQAGGSLRLSCAASGSIESFSFMGWYRQAPGKQRELVAGFTGAASLSFSTYTDAVKGRFTISRDNAKNTVYLQMNSLKPEDTAVYFCNVDPWSQSWPGRYWGQGTQVTVSSGGGGSQLQLVESGGGLAQTGGSLRLSCAAAGFTFDDTATGWFRQAPGKNREGVACISSSDGRIHYIDSAKGRFTISKDNAKKTVYLQMDSLKPEDTAVYYCAAARKGSTDCQGAIWGSWGQGTQVIVSSEPKSCDKTHTCPPCPAPELLG

The next lines start with the binder.

B2: sdAb No. 2015 (VHH, part only)
VHH: QLQLVESGGGLAQTGGSLRLSCAAAGFTFDDTATGWFRQAPGKNREGVACISSSDGRIHYIDSAKGRFTISKDNAKKTVYLQMDSLKPEDTAVYYCAAARKGSTDCQGAIWGSWGQGTQVIVSS
modifications: possible Fc not stated
- IL-2, % of BMS, at 0.005080526 ug/mL: 0.0179%
- IL-2, % of BMS, at 0.015241579 ug/mL: 1.06%
- IL-2, % of BMS, at 0.045724737 ug/mL: 0.925%
- IL-2, % of BMS, at 0.137174211 ug/mL: 1.92%
- IL-2, % of BMS, at 0.411522634 ug/mL: 1.8%
- IL-2, % of BMS, at 1.234567901 ug/mL: 10.6%
- IL-2, % of BMS, at 3.703703704 ug/mL: 19.1%
- IL-2, % of BMS, at 11.11111111 ug/mL: 33.6%
- IL-2, % of BMS, at 33.33333333 ug/mL: 39.8%
- IL-2, % of BMS, at 100 ug/mL: 46.6%

B3: sdAb No. 2093 (VHH, part only)
VHH: QVQLVESGGGLVQPGGSLTLSCVASGFTLDYYTVGWFRQVPGKEREGISCISSSDGSTRYADSVKGRFTISRDNAKNTMSLQMNSLKPEDTAVYYCATPGIHGTSCNTSWKYYGQGTQVTVSS
modifications: possible Fc not stated
- IL-2, % of BMS, at 0.005080526 ug/mL: -0.00098%
- IL-2, % of BMS, at 0.015241579 ug/mL: -3.19%
- IL-2, % of BMS, at 0.045724737 ug/mL: 5.73%
- IL-2, % of BMS, at 0.137174211 ug/mL: 0.267%
- IL-2, % of BMS, at 0.411522634 ug/mL: 1.04%
- IL-2, % of BMS, at 1.234567901 ug/mL: 4%
- IL-2, % of BMS, at 3.703703704 ug/mL: 14.9%
- IL-2, % of BMS, at 11.11111111 ug/mL: 20%
- IL-2, % of BMS, at 33.33333333 ug/mL: 14.4%
- IL-2, % of BMS, at 100 ug/mL: 22.2%

B4: sdAb fusion 25-27-3 (Fc fusion, not shown: a dimerising Fc or GST)
chain: QLQLVESGGGLVQAGGSLRLSCAASGSIESFSFMGWYRQAPGKQRELVAGFTGAASLSFSTYTDAVKGRFTISRDNAKNTVYLQMNSLKPEDTAVYFCNVDPWSQSWPGRYWGQGTQVTVSSGGGGSGGGGSGGGGSQVQLVESGGGLVQPGGSLRLSCAASGFTLDYYAIGWFRQAPGKEREGVSCIRSSDGSTYYADSVKGRFTISSDNTKNTVYLQMNSLKPEDTAVYYCATDRYSDCRGPYENWGQGTQVTVSSEPKSCDKTHTCPPCPAPELLG
- IL-2, % of BMS, at 0.001016105 ug/mL: 0.0673%
- IL-2, % of BMS, at 0.003048316 ug/mL: -5.25%
- IL-2, % of BMS, at 0.009144947 ug/mL: 2.64%
- IL-2, % of BMS, at 0.027434842 ug/mL: -8.9%
- IL-2, % of BMS, at 0.082304527 ug/mL: -0.289%
- IL-2, % of BMS, at 0.24691358 ug/mL: 3.53%
- IL-2, % of BMS, at 0.740740741 ug/mL: 17%
- IL-2, % of BMS, at 2.222222222 ug/mL: 58.4%
- IL-2, % of BMS, at 6.666666667 ug/mL: 120%
- IL-2, % of BMS, at 20 ug/mL: 168%

B5: sdAb fusion 25-17-1 (Fc fusion, not shown: a dimerising Fc or GST)
chain: QLQLVESGGGLVQAGGSLRLSCAASGSIESFSFMGWYRQAPGKQRELVAGFTGAASLSFSTYTDAVKGRFTISRDNAKNTVYLQMNSLKPEDTAVYFCNVDPWSQSWPGRYWGQGTQVTVSSGGGGSQLQLVESGGGLVQPGGSLRLSCAASGLTLDGYAIGWFRQAPGKEREGLACISGSDGSTHYLDSVKGRFTISRDNGKNTMALQMNSLQFGDTAIYYCAARRGSCSGSWTYWGQGTQVTVSS
- Efficacy (Normalized to BMS): 106%
- IL-2, % of BMS, at 0.001016105 ug/mL: 0.0133%
- IL-2, % of BMS, at 0.003048316 ug/mL: 4.1%
- IL-2, % of BMS, at 0.009144947 ug/mL: -0.836%
- IL-2, % of BMS, at 0.027434842 ug/mL: -2.73%
- IL-2, % of BMS, at 0.082304527 ug/mL: -5.85%
- IL-2, % of BMS, at 0.24691358 ug/mL: 6.88%
- IL-2, % of BMS, at 0.740740741 ug/mL: 34%
- IL-2, % of BMS, at 2.222222222 ug/mL: 82.7%
- IL-2, % of BMS, at 6.666666667 ug/mL: 89.2%
- IL-2, % of BMS, at 20 ug/mL: 110%
- Jurkat T-hLAG3 Assay EC50: 10.9 nM

— US20230303690A1 (published 2023)
